Biological target: UDP-glucose pyrophosphorylase from Thermocrispum agreste DSM 44070 (TaGalU) (Thermocrispum agreste DSM 44070)
Assay: SEC; Superdex 200 10/300 GL 24 mL column, non-denaturing, 50 mM Hepes pH 7.0, 1 mM MgCl2; calibrated with protein standards

stoichiometry N: 6
Substance: UDP-glucose pyrophosphorylase from Thermocrispum agreste DSM 44070 (TaGalU) (enzyme)

— publication PMC7343719, “Immobilization of the Highly Active UDP-Glucose Pyrophosphorylase From Thermocrispum agreste Provides a Highly Efficient Biocatalyst for the Production of UDP-Glucose” (Frontiers in Bioengineering and Biotechnology, 2020)
